Results published in the supplement of paper PMC10567573.

B1: ZNF263 (parent)
chain: FAHSSNLLRHQRIHTGERPYKCPE
B2: POMT2 (parent)
chain: VLRSRIRFIHLVTGCVLGSSGKVL

Variants of: B1
Assay: protein stability index of a GFP-peptide fusion (GPS, HEK-293T) (PSI 1-6); higher = more stable
Settings: c terminus: a fixed tail appended
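Also: lentivirally expressed fusions sorted by FACS into six bins by GFP to DsRed ratio, PSI derived from sequencing read proportions per bin multiplied by bin number.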

Protein stability index of substitutions, site by site:
P23: A 2.54; H 2.36; L 2.12; M 2.2; K 2.52; G 2.82; N 2.56; S 2.41; W 2.2; C 1.64; Q 3; R 1.95; V 1.87; E 2.67; I 2.58; T 2.29; Y 2.5; F 2.11; D 2.47
E17: H 2.47; A 2.31; P 2.63; N 1.8; G 1.81; L 2.04; Y 1.47; V 2.44; Q 2.86; C 1.65; D 1.91; I 2.29; S 2.29; M 1.98; K 1.44; R 1.95; W 2.16; F 1.95; T 2.19
R18: I 2.21; Q 2.36; A 2.68; F 2.16; P 2.45; H 2.52; N 2.45; G 2.54; W 2.66; D 3.28; K 2.09; Y 1.86; S 2.35; L 2.39; C 2.23; E 3.36; T 2.27; M 2.2; V 2.46
Y20: G 3.32; E 3.68; C 2.37; V 3.48; L 2.81; K 3.43; D 3.46; N 3.29; M 2.72; R 2.91; T 3.38; H 3.23; F 2.77; A 3.51; P 3.02; Q 3.48; I 2.63; W 2.75; S 3.31
C22: H 2.8; G 2.36; T 2.03; L 2.25; Q 2.9; P 2.58; S 3.48; W 2.08; V 2.13; M 2.26; R 2.29; K 2.15; A 3.1; Y 2.44; F 2.08; I 2.06; D 3.74; N 2.95; E 3.37
P19: L 2.65; C 2.48; Q 3.17; H 2.89; Y 2.58; S 2.69; M 3.05; W 1.83; I 2.38; K 3.02; G 2.59; V 2.67; N 2.75; A 2.54; R 2.9; F 2.74; T 3.02; D 3.71; E 3.67
K21: E 2.79; V 2.65; S 2.29; H 2.49; I 2.6; R 1.97; M 2.07; P 2.51; Y 2.81; T 2.83; C 2.56; F 2.56; W 2.64; A 2.41; Q 2.3; G 2.21; D 2.62; N 3.13; L 2.4
E24: K 2.46; Q 2.33; W 2.72; R 2.15; N 1.88; T 1.87; H 2.16; I 1.7; P 1.87; L 1.48; V 1.56; M 2.4; D 2.44; G 1.92; S 1.84; F 1.59; A 1.89; Y 2.28; C 1.56
G16: S 1.97; T 2.56; W 1.32; V 2.1; Y 1.93

Variants of: B2
Assay: as above
Settings: c terminus: a fixed tail appended

Protein stability index, by site and new letter:
L2: H 2.81; C 2.48; M 2.49; R 3.38; S 2.72; F 2.75; K 3.28; N 2.4; I 2.71; E 1.06; Q 3.47; A 3.86; V 2.83; D 3.93; P 1.76
F8: V 2.68; C 3.6; R 2.11; N 1.9; P 1.48; T 2.35; S 1.57; D 1.88; I 3.13; E 1.76; G 1.66; A 1.04; W 2.35; Q 1.67; H 2.79; K 2.4
R7: E 2.94; V 2.05; Y 2.4; G 2.67; A 3.22; K 3.58; N 2.44; D 1.59; W 2.28; H 3.62; L 2.52; C 2.94; M 3.48; P 2.44; T 3
V1: Y 2.51; S 3.21; D 2.88; P 3.01; L 2.15; T 3; M 3.35; H 2.8; A 2.38; N 3.04; G 1.39; W 1.4; E 2.61; K 2.88; I 2.76; R 1.96
L11: N 2.07; R 1.73; E 2.96; S 3.27; I 2.01; H 2.02; P 2.4; K 2.13; Q 2.87; A 2.33; D 2.48; T 3.02; G 2.18; C 3.74; M 1.68
V12: E 4.33; F 3.19; H 2.88; I 2.81; G 1.84; C 2.2; K 3.48; L 2.13
H10: L 1.87; F 3.38; D 2.56; Y 2.84; I 3.35; K 1.58; T 2.92; C 2.67; N 2.3; G 3.29; A 2.56; R 2.5; W 2.63; P 3.05; M 1.99
R5: I 2.1; P 3.07; E 2.83; M 2.92; L 3.1; W 2.14; T 1.99; V 2.4; S 1.06; F 2.21; G 2.25; N 2.48; H 2.82; D 2.67; Y 2.99
R3: A 1.24; H 2.39; L 2.04; M 3.2; E 2.31; V 2.18; P 3.15; F 2.27; I 3.85; S 3.27; G 3.29; C 2.14; N 2.43; Y 2.82; T 2.65
I6: C 4.38; D 1.89; E 2.45; L 2.83; Y 3.93; T 1.3; P 3.19; F 3.11; A 1.64; G 2.81; S 1.83; H 2.53; K 2.08; M 2.88; R 1.78; V 3.12
S4: K 3.75; H 2.09; E 2.36; L 3.33; T 3.04; D 2.56; R 2.66; Y 3.18; Q 3.06; F 2.29; N 4.14; V 2.38; I 2.53
I9: S 2.78; N 2.64; Y 3.49; Q 2.87; C 1.74; D 1.63; L 2.5; V 1.5; F 1.85; W 1.71; H 4.48; A 4.43; M 2.73; R 1.39; P 1.42; E 2.34; K 2.98; G 2.62
